The text below walks through data of US20220340658A1 (WASHINGTON UNIVERSITY, published 2022).

The target in this experiment is SARS-CoV-1 spike protein (SARS-CoV-1, UniProt P59594 14-1190). Briefly: ELISA, hybridoma supernatant. On the technique in general: In an ELISA, binding on a coated surface is turned into a signal by an enzyme label.

B1: SARS2-38 (antibody, V domains shown)
VH: QVQLKESGPGLVAPSQSLSITCTVSGFSLTRYGVHWVRQPPGKGLEWLGVIWADGSTYYNSALMSRLSISKDNSKSQVFLNMNSLQTDDTAKYYCARDGRGYDDYWGQGTTLTVSS
VL: QIVLTQSPAIMSASPGEKVTMTCSASSTVSFIYWYQQKPGSSPRLLIYDTSNPASGVPVRFSGSGCGTSYYLTISRMEAEDAATYYCQQWNTYPLTFGAGTKLELK
Consider B1, for which the binding result is recorded as “no binding”.
